The record followed here is patent publication US20250262210A1 (TRUSTEES OF COLUMBIA UNIVERSITY IN THE CITY OF NEW YORK, published 2025).

The target of one experiment is TTI1 (human, UniProt O43156 1-1089). In words: IP/MS, LZTR1 R810W-FLAG, U87. The essentials:
(§1)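 Extracted peptides in 3% acetonitrile/0.1% formic acid ran on a 50 cm C18 column into an Orbitrap Fusion, with MaxQuant identification and spectral counting.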

Another experiment addresses T1, FBX038 (human, UniProt Q6PIJ6 1-1188, limits assumed).
T1 construct: Printed with a zero; probably FBXO38
T1 sequence (looked up): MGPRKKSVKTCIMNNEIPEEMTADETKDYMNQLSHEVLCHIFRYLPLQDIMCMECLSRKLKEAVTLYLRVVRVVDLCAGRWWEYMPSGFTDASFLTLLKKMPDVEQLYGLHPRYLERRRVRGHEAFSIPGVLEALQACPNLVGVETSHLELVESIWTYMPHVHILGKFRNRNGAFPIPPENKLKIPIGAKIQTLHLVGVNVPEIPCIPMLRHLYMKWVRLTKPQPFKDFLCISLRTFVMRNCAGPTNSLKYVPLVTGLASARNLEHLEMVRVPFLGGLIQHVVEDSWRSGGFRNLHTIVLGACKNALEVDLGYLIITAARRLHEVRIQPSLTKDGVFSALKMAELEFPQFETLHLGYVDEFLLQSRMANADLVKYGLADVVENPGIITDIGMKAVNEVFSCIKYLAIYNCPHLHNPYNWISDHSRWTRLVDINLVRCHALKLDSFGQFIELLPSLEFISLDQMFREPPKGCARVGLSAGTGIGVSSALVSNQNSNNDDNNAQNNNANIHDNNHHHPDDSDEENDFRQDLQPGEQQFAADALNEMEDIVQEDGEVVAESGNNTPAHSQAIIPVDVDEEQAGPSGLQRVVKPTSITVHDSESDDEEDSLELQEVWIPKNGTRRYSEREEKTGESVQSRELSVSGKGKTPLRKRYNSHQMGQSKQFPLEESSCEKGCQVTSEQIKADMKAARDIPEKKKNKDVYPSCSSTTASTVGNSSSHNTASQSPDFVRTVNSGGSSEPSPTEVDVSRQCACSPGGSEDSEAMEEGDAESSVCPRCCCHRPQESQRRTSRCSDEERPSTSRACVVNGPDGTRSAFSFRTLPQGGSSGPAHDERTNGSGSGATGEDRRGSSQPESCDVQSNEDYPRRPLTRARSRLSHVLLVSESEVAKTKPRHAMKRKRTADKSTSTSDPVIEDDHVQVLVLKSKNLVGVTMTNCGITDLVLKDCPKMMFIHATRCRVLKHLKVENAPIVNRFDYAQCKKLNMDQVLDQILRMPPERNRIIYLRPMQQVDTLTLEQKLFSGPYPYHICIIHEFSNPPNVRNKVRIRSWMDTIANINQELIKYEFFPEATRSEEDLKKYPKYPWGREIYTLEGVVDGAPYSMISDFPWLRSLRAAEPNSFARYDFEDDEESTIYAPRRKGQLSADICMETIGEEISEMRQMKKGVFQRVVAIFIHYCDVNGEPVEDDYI
In words: IP/MS, LZTR1 R810W-FLAG, U87. The essentials: as §1

Chain of TTI1 (O43156 whole entry, the tested form may be a part): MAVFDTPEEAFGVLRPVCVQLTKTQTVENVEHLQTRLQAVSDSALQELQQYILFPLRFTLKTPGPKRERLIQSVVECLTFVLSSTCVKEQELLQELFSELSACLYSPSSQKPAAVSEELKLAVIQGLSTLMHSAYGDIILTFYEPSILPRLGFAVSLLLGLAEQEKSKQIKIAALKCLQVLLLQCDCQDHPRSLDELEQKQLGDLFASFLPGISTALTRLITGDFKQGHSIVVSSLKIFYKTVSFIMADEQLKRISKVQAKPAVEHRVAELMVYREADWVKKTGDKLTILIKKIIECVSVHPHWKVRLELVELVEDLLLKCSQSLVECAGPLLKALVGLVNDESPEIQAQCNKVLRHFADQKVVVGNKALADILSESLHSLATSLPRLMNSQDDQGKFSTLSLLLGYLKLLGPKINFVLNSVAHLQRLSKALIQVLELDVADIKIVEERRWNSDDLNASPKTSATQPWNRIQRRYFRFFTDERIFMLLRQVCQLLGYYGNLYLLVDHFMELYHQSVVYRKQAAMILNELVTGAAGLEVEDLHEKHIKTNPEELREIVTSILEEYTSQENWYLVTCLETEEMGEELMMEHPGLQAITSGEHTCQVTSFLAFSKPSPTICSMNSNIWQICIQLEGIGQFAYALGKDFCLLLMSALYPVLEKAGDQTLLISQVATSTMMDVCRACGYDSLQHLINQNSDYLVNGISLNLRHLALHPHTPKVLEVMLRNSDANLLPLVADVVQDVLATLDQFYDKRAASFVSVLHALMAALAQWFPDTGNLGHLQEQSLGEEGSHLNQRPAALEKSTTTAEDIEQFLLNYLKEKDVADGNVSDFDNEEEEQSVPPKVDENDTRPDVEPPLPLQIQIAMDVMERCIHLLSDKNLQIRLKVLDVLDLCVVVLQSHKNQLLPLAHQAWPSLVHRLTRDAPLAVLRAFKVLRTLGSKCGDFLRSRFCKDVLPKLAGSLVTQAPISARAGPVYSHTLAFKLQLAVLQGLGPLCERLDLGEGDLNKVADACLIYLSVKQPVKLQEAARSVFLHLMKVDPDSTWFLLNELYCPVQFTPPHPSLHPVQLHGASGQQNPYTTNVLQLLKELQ

B1: LZTR1 R810W-FLAG (other, human, UniProt Q8N653 1-840, looked up)
chain: MAGPGSTGGQIGAAALAGGARSKVAPSVDFDHSCSDSVEYLTLNFGPFETVHRWRRLPPCDEFVGARRSKHTVVAYKDAIYVFGGDNGKTMLNDLLRFDVKDCSWCRAFTTGTPPAPRYHHSAVVYGSSMFVFGGYTGDIYSNSNLKNKNDLFEYKFATGQWTEWKIEGRLPVARSAHGATVYSDKLWIFAGYDGNARLNDMWTIGLQDRELTCWEEVAQSGEIPPSCCNFPVAVCRDKMFVFSGQSGAKITNNLFQFEFKDKTWTRIPTEHLLRGSPPPPQRRYGHTMVAFDRHLYVFGGAADNTLPNELHCYDVDFQTWEVVQPSSDSEVGGAEVPERACASEEVPTLTYEERVGFKKSRDVFGLDFGTTSAKQPTQPASELPSGRLFHAAAVISDAMYIFGGTVDNNIRSGEMYRFQFSCYPKCTLHEDYGRLWESRQFCDVEFVLGEKEECVQGHVAIVTARSRWLRRKITQARERLAQKLEQEAAPVPREAPGVAAGGARPPLLHVAIREAEARPFEVLMQFLYTDKIKYPRKGHVEDVLLIMDVYKLALSFQLCRLEQLCRQYIEASVDLQNVLVVCESAARLQLSQLKEHCLNFVVKESHFNQVIMMKEFERLSSPLIVEIVRRKQQPPPRTPLDQPVDIGTSLIQDMKAYLEGAGAEFCDITLLLDGHPRPAHKAILAARSSYFEAMFRSFMPEDGQVNISIGEMVPSRQAFESMLRYIYYGEVNMPPEDSLYLFAAPYYYGFYNNRLQAYCKQNLEMNVTVQNVLQILEAADKTQALDMKRHCLHIIVHQFTKVSKLPTLWSLSQQLLLDIIDSLASHISDKQCAELGADI
notes: Stably expressed in U87 cells by lentivirus; also called LZTR1-FLAG-R810W; LZTR1 RW; not shown: FLAG tag
Regarding B1, the binding result with TTI1 and in the experiment with FBX038 was “binds” each time.
